{"source": "patent US6194559", "key": {"[1]": {"system": "ABF1 (Arabidopsis thaliana)", "assay": "cell_activity", "conditions": "yeast lacZ; no activity without ABRE"}, "[2]": {"system": "ABF2 (Arabidopsis thaliana)", "assay": "cell_activity", "conditions": "yeast lacZ"}}, "data": [{"substance": "Em1a trimer reporter", "values": [{"measurement": "activity (fold over control)", "setting": "[1]", "value": 6}, {"measurement": "activity (fold over background)", "setting": "[2]", "value": 2}]}]}
